Test results taken from US20240116985A1 (published 2024).
Starred links: 1 amine or outer side, 2 acyl side, 3 side chain; linkers in the order of their positions; H or OH if unused. Positions of bridges follow the written chain, without caps; N, C: chain ends. Non-standard residues stand in square brackets, D forms with d. Primed or numbered codes have the meaning given here. *: point of attachment. PyrS2″ = (S)-3-amino-1-((pent-4-en-1-yloxy)carbonyl)pyrrolidine-3-carboxylic acid (stapling residue), C=CCCCOC(=O)N1CC[C@@](N[*:1])(C(=O)[*:2])C1; B5(17) = 2,2-bis(4-pentenyl)glycine = 2-amino-2-(pent-4-en-1-yl)hept-6-enoic acid, stitching residue, C=CCCCC(CCCC=C)(N[*:1])C(=O)[*:2]; B5(4) = 2,2-bis(4-pentenyl)glycine = 2-amino-2-(pent-4-en-1-yl)hept-6-enoic acid (stitching residue), C=CCCCC(CCCC=C)(N[*:1])C(=O)[*:2]; B5(5) = 2,2-bis(4-pentenyl)glycine, 2-amino-2-(pent-4-en-1-yl)hept-6-enoic acid (stitching residue), C=CCCCC(CCCC=C)(N[*:1])C(=O)[*:2]; TfeGA = (S)-2-amino-3-((carboxymethyl)(2,2,2-trifluoroethyl)amino)propanoic acid, O=C([C@H](CN(CC(=O)[*:3])CC(F)(F)F)N[*:1])[*:2]; PyrS2 = (S)-3-amino-1-((pent-4-en-1-yloxy)carbonyl)pyrrolidine-3-carboxylic acid, C=CCCCOC(=O)N1CC[C@@](N[*:1])(C(=O)[*:2])C1; 5iPr3COOHF = (S)-3-(2-amino-2-carboxyethyl)-5-isopropylbenzoic acid, CC(C)c1cc(C[C@H](N[*:1])C(=O)[*:2])cc(C(=O)[*:3])c1; MorphAsn = (S)-2-amino-4-morpholino-4-oxobutanoic acid, O=C(C[C@H](N[*:1])C(=O)[*:2])N1CCOCC1; Phe(3-COOH) = N[C@@H](Cc1cccc(C(=O)O)c1)C(=O)O; Phe(2-CF3) = N[C@@H](Cc1ccccc1C(F)(F)F)C(=O)O; Phe(2-Cl) = N[C@@H](Cc1ccccc1Cl)C(=O)O; Bta = N[C@@H](Cc1csc2ccccc12)C(=O)O; Lys(iPr) = CC(C)NCCCC[C@H](N)C(=O)O; αAllylPro = C=CC[C@@]1(C(=O)O)CCCN1; tBuAla = CC(C)(C)C[C@H](N)C(=O)O; 3Thi = N[C@@H](Cc1ccsc1)C(=O)O; Cha = N[C@@H](CC1CCCCC1)C(=O)O; S8 = C=CCCCCCC[C@](C)(N)C(=O)O; Thr(ol) = C[C@@H](O)[C@H](N)CO; hLeu = CC(C)CC[C@H](N)C(=O)O; Leu(ol) = CC(C)C[C@H](N)CO; hSer = N[C@@H](CCO)C(=O)O; 34ClF = not defined here; NH(CH2)6NH2 = NCCCCCCN*; Alaol = C[C@@H](CO)N*; Aib = CC(C)(N)C(=O)O

T1: B-cat-Halo (UniProt P35222 1-781)
T1 sequence (looked up): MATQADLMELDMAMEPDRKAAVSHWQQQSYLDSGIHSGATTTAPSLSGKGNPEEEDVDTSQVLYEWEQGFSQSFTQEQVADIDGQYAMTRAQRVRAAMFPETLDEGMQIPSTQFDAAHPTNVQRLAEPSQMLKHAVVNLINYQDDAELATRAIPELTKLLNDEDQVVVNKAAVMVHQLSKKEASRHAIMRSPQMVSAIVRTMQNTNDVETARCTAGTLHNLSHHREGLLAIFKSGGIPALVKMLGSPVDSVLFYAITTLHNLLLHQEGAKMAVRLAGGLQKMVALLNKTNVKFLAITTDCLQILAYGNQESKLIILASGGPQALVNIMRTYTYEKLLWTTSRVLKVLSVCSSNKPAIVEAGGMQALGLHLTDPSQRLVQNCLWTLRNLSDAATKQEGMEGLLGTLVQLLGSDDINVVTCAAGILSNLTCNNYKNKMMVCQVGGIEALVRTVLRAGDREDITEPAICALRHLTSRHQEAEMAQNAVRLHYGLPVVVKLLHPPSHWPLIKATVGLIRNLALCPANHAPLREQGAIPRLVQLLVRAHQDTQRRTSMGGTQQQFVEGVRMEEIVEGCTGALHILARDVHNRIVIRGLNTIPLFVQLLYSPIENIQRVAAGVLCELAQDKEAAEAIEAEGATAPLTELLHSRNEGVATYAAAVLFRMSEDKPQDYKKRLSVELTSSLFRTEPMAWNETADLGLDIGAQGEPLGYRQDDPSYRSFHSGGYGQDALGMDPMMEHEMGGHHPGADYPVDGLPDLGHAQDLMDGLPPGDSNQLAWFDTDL

T2: B-cat-Halo (beta-catenin HaloTag NanoBRET construct expressed in HEK293 cells) (UniProt P35222 1-781)
T2 sequence (looked up): T1 sequence (looked up)

T3: beta-catenin in DLD1 TCF/LEF luciferase reporter cells (UniProt P35222 1-781)
T3 sequence (looked up): T1 sequence (looked up)

T4: full-length beta-Catenin (Uniprot ID P35222) (Homo sapiens (Human), UniProt P35222 1-781)
T4 construct: also called bCat; B-Catenin
T4 sequence: T1 sequence (looked up)

T5: B-cat-Halo (beta-catenin HaloTag NanoBRET construct expressed in HEK293 cells) (UniProt P35222 1-781)
T5 sequence (looked up): T1 sequence (looked up)

T6: B-cat-Halo (UniProt P35222 1-781)
T6 sequence (looked up): T1 sequence (looked up)

T7: beta-catenin in DLD1 TCF/LEF reporter cells (UniProt P35222 1-781)
T7 sequence (looked up): T1 sequence (looked up)

B1: I-2417 (peptide)
peptide: Ac-[αAllylPro]D[tBuAla][B5(5)]NT[Aib]AFN[PyrS2″][3Thi][34ClF]Q-NH2
modifications: staple 1-4, 4-11; reading uncertain; also: printed as Ac-PL3-Asp-Npg-B5-Asn-Thr-Aib-Ala-Phe-Asn-PyrS2-3Thi-34C1F-Gln-NH2
B2: I-550 (peptide)
peptide: XDIXDDAAFNXFXQ
modifications: not fully specified; N-terminal Ac; PL3 at 1; B5 at 4; S8 at 11; 2OMeF at 12; BztA at 13; C-terminal NH2; staples PL3(1)-B5(4) and B5(4)-S8(11) by olefin metathesis
B3: I-1053 (peptide)
peptide: XDXXDDAAFNXXXQ
modifications: not fully specified; AzAc-PL3-Asp-Npg-B5-Asp-Asp-Ala-Ala-Phe-Asn-S8-3Thi-BztA-Gln-NH2; stapled PL3-B5 and B5-S8 (olefin metathesis)

target: T1, B-cat-Halo; assay: cell-based or functional assay

Binder	NanoBRET Abs IC50 [µM]
Ac-[αAllylPro]N[Cha][B5(5)]DQ[Lys(iPr)]AFL[PyrS2″]F[Bta][MorphAsn]-NH2 (staple 1-4, 4-11) [I-2426]	> 20
Ac-[αAllylPro]D[tBuAla][B5(5)]D[5iPr3COOHF]QAFL[PyrS2″][Phe(2-CF3)][Bta]A-NH2 (staple 1-4, 4-11) [I-2431]	7
Ac-[αAllylPro]N[Cha][B5(5)]DQQAFL[PyrS2″]F[Bta]K-NH2 (staple 1-4, 4-11) [I-2421]	> 20
B1	21.6
Ac-[αAllylPro]D[Cha][B5(5)]DQ[Lys(iPr)]AFL[PyrS2″]F[Bta]K-NH2 (staple 1-4, 4-11) [I-2429]	> 20
Ac-[αAllylPro]N[Cha][B5(5)]DQ[hSer]AFL[PyrS2″]F[Bta]K-NH2 (staple 1-4, 4-11) [I-2419]	> 20
Ac-[αAllylPro]D[tBuAla][B5(5)]D[5iPr3COOHF]AAFL[PyrS2″][Phe(2-CF3)][Bta]Q-NH2 (staple 1-4, 4-11) [I-2430]	4.5

target: T2, B-cat-Halo (beta-catenin HaloTag …); assay: cell-based or functional assay

Binder	NanoBRET Abs IC50 [µM]
Ac-[αAllylPro]D[hLeu][B5(4)]DDAAFN[S8]F[Bta]Q-NH2 (staple 1-4, 4-11; not fully specified) [I-548]	15.6
B2	21.4
Ac-[αAllylPro]D[tBuAla][B5(4)]DEAAFQ[S8]F[Bta]Q-NH2 (staple 1-4, 4-11) [I-544]	4.6
Ac-[αAllylPro]DI[B5(17)]DEAAFN[S8]F[Bta]Q-NH2 (staple 1-4, 4-11) [I-557]	16.9
Ac-[αAllylPro]D[tBuAla][B5(4)]DDAAFN[S8]F[Bta]Q-NH2 (staple 1-4, 4-11) [I-546]	12.1
Ac-[αAllylPro]D[hLeu][B5(4)]DEAAFQ[S8]F[Bta]Q-NH2 (staple 1-4, 4-11) [I-545]	3.5
Ac-[αAllylPro]DL[B5(4)]DEAAFN[S8]F[Bta]H-NH2 (staple 1-4, 4-11) [I-543]	17

target: T3, beta-catenin in DLD1 TCF/LEF luciferase …; assay: cell-based or functional assay

Binder	DLD1 4% Abs IC50 [µM]
Ac-[αAllylPro]D[tBuAla][B5(5)]NT[Aib]AFN[PyrS2″][3Thi][Bta]T-NH2 (staple 1-4, 4-11) [I-2416]	> 20
Ac-[αAllylPro]D[tBuAla][B5(5)]NT[Aib]AFN[PyrS2″][3Thi][Bta]R-NH2 (staple 1-4, 4-11) [I-2413]	> 20
Ac-[αAllylPro]D[tBuAla][B5(5)]D[Phe(3-COOH)]AAFL[PyrS2][Phe(2-CF3)][Bta]QVA-NH2 (staple 1-4, 4-11) [I-2401]	0.8
Ac-[αAllylPro]D[tBuAla][B5(5)]D[Phe(3-COOH)]AAFL[PyrS2][Phe(2-CF3)][Bta]QAA-NH2 (staple 1-4, 4-11) [I-2399]	2.2
Ac-[αAllylPro]D[tBuAla][B5(5)]D[Phe(3-COOH)]AAFL[PyrS2][Phe(2-CF3)][Bta]QFA-NH2 (staple 1-4, 4-11) [I-2400]	0.8

target: T4, full-length beta-Catenin (Uniprot ID …); assay: fluorescence polarization competition; full-length beta-catenin with 5FAM-labeled TCF4 residues 10-53 probe as competitor
Procedure: The plate was incubated protected from light for 60 minutes at 20° C. prior to read. Reads were performed on a CLARIOstar plate reader (BMG Labtech) in duplicate, and data were fitted to a 1:1 binding model with hill slope using an in-house script. All provided concentrations are final concentrations.

Binder	IC50 [nM]
B2	30
Ac-[αAllylPro]DI[B5(17)]DEAAFN[S8]F[Bta]Q-NH2 (staple 1-4, 4-11) [I-557]	35
Ac-[αAllylPro]DL[B5(4)]DEAAFN[S8]F[Bta]H-NH2 (staple 1-4, 4-11) [I-543]	32

target: T5, B-cat-Halo (beta-catenin HaloTag …); assay: cell-based or functional assay

Binder	NanoBRET Abs IC50 [µM]
B3	> 20
AzAc-[αAllylPro]D[tBuAla][B5(4)]D[TfeGA]AAFN[PyrS2][3Thi][Bta]Q-NH2 (staple 1-4, 4-11; not fully specified) [I-1054]	> 20
Ac-[αAllylPro]D[tBuAla][B5(4)]D[TfeGA]AAFT[PyrS2][Phe(2-Cl)][Bta]Q-{NH(CH2)6NH2} (staple 1-4, 4-11) [I-1061]	10.3

target: T6, B-cat-Halo; assay: cell-based or functional assay

Binder	NanoBRET Abs IC50 [µM]
Ac-[αAllylPro]D[tBuAla][B5(4)]DDAAFT[PyrS2″][Phe(2-Cl)][Bta]S-NHEt (staple 1-4, 4-11) [I-1244]	17.7
Ac-[αAllylPro]D[tBuAla][B5(4)]DDAAFT[PyrS2″][Phe(2-Cl)][Bta][Thr(ol)] (staple 1-4, 4-11) [I-1245]	12.2
Ac-[αAllylPro]D[tBuAla][B5(4)]D[TfeGA]AAFT[PyrS2″][Phe(2-Cl)][Bta]-Alaol (staple 1-4, 4-11) [I-1242]	> 20
Ac-[αAllylPro]D[tBuAla][B5(4)]D[TfeGA]AAFT[PyrS2″][Phe(2-Cl)][Bta][Thr(ol)] (staple 1-4, 4-11) [I-1241]	15.7
Ac-[αAllylPro]D[tBuAla][B5(4)]DDAAFT[PyrS2″][Phe(2-Cl)][Bta][Leu(ol)] (staple 1-4, 4-11) [I-1247]	> 20
Ac-[αAllylPro]D[tBuAla][B5(4)]DDAAFT[PyrS2″][Phe(2-Cl)][Bta]-Alaol (staple 1-4, 4-11) [I-1246]	24.3
Ac-[αAllylPro]D[tBuAla][B5(4)]D[TfeGA]AAFT[PyrS2″][Phe(2-Cl)][Bta]Q-NHEt (staple 1-4, 4-11) [I-1240]	11.5

target: T7, beta-catenin in DLD1 TCF/LEF reporter …; assay: cell-based or functional assay

Binder	DLD1 reporter assay Abs IC50 [µM]
Ac-[αAllylPro]D[tBuAla][B5(4)]DDAAFT[PyrS2″][Phe(2-Cl)][Bta]S-NHEt (staple 1-4, 4-11) [I-1244]	13.9
Ac-[αAllylPro]D[tBuAla][B5(4)]DDAAFT[PyrS2″][Phe(2-Cl)][Bta][Thr(ol)] (staple 1-4, 4-11) [I-1245]	7.3
Ac-[αAllylPro]D[tBuAla][B5(4)]D[TfeGA]AAFT[PyrS2″][Phe(2-Cl)][Bta]-Alaol (staple 1-4, 4-11) [I-1242]	4.8
Ac-[αAllylPro]D[tBuAla][B5(4)]D[TfeGA]AAFT[PyrS2″][Phe(2-Cl)][Bta][Thr(ol)] (staple 1-4, 4-11) [I-1241]	3.8
Ac-[αAllylPro]D[tBuAla][B5(4)]DDAAFT[PyrS2″][Phe(2-Cl)][Bta][Leu(ol)] (staple 1-4, 4-11) [I-1247]	> 20
Ac-[αAllylPro]D[tBuAla][B5(4)]DDAAFT[PyrS2″][Phe(2-Cl)][Bta]-Alaol (staple 1-4, 4-11) [I-1246]	15.9
Ac-[αAllylPro]D[tBuAla][B5(4)]D[TfeGA]AAFT[PyrS2″][Phe(2-Cl)][Bta]Q-NHEt (staple 1-4, 4-11) [I-1240]	4.9
